The target of this test is LgB-NIX (NIX with Large BiT at its N-terminal end) (UniProt O60238 1-219). In words: split reporter.
Chain of LgB-NIX (NIX with Large BiT at its N-terminal end) (O60238 whole entry): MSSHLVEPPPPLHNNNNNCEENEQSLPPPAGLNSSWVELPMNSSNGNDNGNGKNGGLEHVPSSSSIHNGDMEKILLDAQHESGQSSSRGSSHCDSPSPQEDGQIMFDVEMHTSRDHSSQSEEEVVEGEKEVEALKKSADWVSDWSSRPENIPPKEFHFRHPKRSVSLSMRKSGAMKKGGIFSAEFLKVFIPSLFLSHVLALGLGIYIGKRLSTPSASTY

B1: vIRF-1-SmB (vIRF-1 with Small BiT at its C-terminal end) (natural protein)
chain: MDPGQRPNPFGAPGAIPKKPCLSQGSPGTSGSGAPCDEPSRSESPGEGPSGTGGSAAAGDITRQAVVAAITEWSRTRQLRISTGASEGKASIKDWIVCQVNSGKFPGVEWEDEERTRFRIPVTPLADPCFEWRRDGELGVVYIRERGNMPVDASFKGTRGRRRMLAALRRTRGLQEIGKGISQDGHHFLVFRVRKPEEEQCVECGVVAGAVHDFNNMARLLQEGFFSPGQCLPGEIVTPVPSCTTAEGQEAVIDWGRLFIRMYYNGEQVHELLTTSQSGCRISSALRRDPAVHYCAVGSPGQVWLPNVPNLACEIAKRELCDTLDACAKGILLTSSCNGIFCVCYHNGPVHFIGNTVPPDSGPLLLPQGKPTRIFNPNTFLVGLANSPLPAPSHVTCPLVKLWLGKPVAVGKLEPHAPSPRDFAARCSNFSDACVVLEIMPKPLWDAMQ
Take B1: the “fold luminescence over HT-SmB with LgB-NIX” value stood at 10 fold.

These data come from publication doi:10.1101/506113 (bioRxiv, 2018).
